These results are taken from patent publication US20220031841A1 (ABSCI, published 2022).

Test [1] addresses T1, O-linked N-acetylglucosamine (GlcNAc) transferase (OGT) (human, UniProt O15294 2-1046).
T1 construct: The array carries full-length recombinant human proteins expressed in S. cerevisiae; also called Human OGT
T1 sequence: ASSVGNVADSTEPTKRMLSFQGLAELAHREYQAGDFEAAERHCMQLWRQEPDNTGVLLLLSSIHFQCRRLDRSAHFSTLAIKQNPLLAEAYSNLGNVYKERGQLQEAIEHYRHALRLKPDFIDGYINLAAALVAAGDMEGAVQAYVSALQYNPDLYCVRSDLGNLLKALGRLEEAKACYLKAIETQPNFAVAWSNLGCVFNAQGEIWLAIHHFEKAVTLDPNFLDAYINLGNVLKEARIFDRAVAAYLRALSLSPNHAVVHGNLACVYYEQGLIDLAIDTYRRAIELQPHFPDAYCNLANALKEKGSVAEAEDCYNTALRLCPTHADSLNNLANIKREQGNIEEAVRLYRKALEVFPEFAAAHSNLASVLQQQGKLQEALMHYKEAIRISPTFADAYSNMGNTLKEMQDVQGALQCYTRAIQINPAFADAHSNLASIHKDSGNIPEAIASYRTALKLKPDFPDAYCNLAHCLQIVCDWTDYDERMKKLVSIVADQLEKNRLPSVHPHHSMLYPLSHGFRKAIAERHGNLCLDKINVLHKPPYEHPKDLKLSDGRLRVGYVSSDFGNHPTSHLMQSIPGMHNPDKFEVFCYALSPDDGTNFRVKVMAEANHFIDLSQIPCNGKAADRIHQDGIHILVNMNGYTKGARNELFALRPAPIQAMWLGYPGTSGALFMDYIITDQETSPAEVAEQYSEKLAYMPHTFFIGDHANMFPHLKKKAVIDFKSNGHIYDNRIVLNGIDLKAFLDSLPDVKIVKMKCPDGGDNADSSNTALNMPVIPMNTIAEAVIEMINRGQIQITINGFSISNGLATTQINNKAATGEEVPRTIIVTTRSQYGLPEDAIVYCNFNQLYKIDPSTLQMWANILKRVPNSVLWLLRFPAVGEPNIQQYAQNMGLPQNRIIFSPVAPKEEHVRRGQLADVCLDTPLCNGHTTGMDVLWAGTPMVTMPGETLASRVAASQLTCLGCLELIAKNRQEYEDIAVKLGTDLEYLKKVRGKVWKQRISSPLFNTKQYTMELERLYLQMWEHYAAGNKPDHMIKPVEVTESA
Nature of the test: HuProt protein array, F635 z-score. A digest of the protocol:
(§1)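 Signal from an Alexa-647 anti-human IgG Fc gamma secondary is converted to a z-score per spot and averaged across the two duplicate spots. Primary antibody incubation: 1 μg/ml, room temperature, 1 hour, on arrays of full-length yeast-expressed proteins.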

The target in test [2] is T2, Kinesin light chain 4 protein (KLC4) (human, UniProt Q9NSK0 2-619).
T2 construct: The array carries full-length recombinant human proteins expressed in S. cerevisiae; also called Human KLC4
Description: HuProt protein array, antibody at 1 µg/ml, Alexa-647 anti-human IgG Fc; F635 signal as z-score; KLC4 replicate 1. The source says:
(§2) Large scale protein arrays are versatile and sensitive platforms for antibody specificity evaluation. They can be used for the evaluation of protein binding or affinity reagents that are widely employed in research and clinical applications. The microarray used in our target identification experiment provides the largest number of unique, full-length, individually purified human proteins on a single microscope slide. This allows thousands of interactions to be profiled in a high-throughput manner. The hill-length recombinant proteins are expressed in the yeast S. cerevisiae, purified, and printed on glass slides in duplicate along with a set of control proteins (GST, BSA, histones, IgG, etc.). Such microarray is not restricted to a particular type of surface coating, although the default is glass coated with ultra-thin nitrocellulose film for the non-covalent, yet irreversible, capture of active proteins to the surface. Fourteen Protein arrays were used for the antibody cross-reactivity assay of the samples. […] The antibody-antigen binding score was calculated for each protein represented on the array and expressed as z-scores. […]
(§3) Z score is the average Z score of the duplicate spots of a given protein (each protein is printed in duplicate on a HuProt™ array). The Z score of each spot on a given array is calculated according to the equation: […]

Test [3] concerns the target T3, Alpha-taxilin (TXLNA) also known as interleukin-14A (human, UniProt P40222 1-546).
T3 construct: The array carries full-length recombinant human proteins expressed in S. cerevisiae; also called IL-14A; TXLNA/IL-14A
Nature of the test: HuProt protein array, antibody at 1 µg/ml, Alexa-647 anti-human IgG Fc; F635 signal as z-score; TXLNA replicate 1.
Source text: as §2, §3

Test [4] addresses T2, Kinesin light chain 4 protein (KLC4). Description: HuProt protein array, F635 z-score. Summed up: as §1
The target of test [5] is T4, Melanoma-associated antigen 3 (MAGE-A3) (human, UniProt P43357 1-314).
T4 construct: The array carries full-length recombinant human proteins expressed in S. cerevisiae; also called Human MAGE-A3
Description: HuProt protein array, antibody at 1 µg/ml, Alexa-647 anti-human IgG Fc; F635 signal as z-score; MAGEA3 replicate 1.
Source text: as §2, §3

Test [6] concerns the target T1, O-linked N-acetylglucosamine (GlcNAc) …. Description: HuProt protein array, antibody at 1 µg/ml, Alexa-647 anti-human IgG Fc; F635 signal as z-score; OGT replicate 1.
Source text: as §2, §3

The target in test [7] is T5, Inorganic pyrophosphatase (PPA1) (human, UniProt Q15181 2-289).
T5 construct: The array carries full-length recombinant human proteins expressed in S. cerevisiae; also called Human PPA1
T5 sequence: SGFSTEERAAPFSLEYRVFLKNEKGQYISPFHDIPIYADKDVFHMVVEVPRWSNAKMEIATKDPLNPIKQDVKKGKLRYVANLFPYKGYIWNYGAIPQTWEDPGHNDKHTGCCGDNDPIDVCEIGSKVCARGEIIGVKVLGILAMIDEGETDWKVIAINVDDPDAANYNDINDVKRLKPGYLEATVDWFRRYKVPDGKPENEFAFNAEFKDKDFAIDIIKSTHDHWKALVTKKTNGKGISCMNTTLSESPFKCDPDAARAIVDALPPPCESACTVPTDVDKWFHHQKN
Description: HuProt protein array, antibody at 1 µg/ml, Alexa-647 anti-human IgG Fc; F635 signal as z-score; PPA1 replicate 1.
Source text: as §2, §3

T2 sequence (Q9NSK0 2-619 limits assumed): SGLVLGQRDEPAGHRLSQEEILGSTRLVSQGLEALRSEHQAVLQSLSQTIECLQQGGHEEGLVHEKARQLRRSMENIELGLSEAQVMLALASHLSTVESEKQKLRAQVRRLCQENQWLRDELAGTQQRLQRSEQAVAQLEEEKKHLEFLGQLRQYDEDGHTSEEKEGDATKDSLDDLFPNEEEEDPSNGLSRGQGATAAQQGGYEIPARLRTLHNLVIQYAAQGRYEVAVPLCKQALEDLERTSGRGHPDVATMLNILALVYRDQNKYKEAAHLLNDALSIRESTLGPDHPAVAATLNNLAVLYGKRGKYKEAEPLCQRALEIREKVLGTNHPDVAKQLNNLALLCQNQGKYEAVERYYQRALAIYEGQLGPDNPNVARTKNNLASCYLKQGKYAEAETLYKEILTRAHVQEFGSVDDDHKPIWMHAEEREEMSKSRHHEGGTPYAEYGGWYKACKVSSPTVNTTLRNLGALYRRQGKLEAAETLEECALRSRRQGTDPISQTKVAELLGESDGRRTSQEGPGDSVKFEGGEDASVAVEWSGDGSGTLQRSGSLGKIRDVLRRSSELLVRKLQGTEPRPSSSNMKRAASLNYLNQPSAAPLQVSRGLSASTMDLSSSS
T4 sequence (P43357 whole entry): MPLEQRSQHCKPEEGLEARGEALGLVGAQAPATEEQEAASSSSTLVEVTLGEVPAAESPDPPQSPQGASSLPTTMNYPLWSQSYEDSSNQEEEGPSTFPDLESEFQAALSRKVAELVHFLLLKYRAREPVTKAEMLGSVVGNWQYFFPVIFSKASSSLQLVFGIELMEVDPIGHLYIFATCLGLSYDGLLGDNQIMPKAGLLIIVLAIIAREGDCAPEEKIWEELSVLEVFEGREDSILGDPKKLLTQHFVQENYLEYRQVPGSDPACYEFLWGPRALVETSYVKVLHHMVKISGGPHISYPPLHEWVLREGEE
T3 sequence (P40222 whole entry): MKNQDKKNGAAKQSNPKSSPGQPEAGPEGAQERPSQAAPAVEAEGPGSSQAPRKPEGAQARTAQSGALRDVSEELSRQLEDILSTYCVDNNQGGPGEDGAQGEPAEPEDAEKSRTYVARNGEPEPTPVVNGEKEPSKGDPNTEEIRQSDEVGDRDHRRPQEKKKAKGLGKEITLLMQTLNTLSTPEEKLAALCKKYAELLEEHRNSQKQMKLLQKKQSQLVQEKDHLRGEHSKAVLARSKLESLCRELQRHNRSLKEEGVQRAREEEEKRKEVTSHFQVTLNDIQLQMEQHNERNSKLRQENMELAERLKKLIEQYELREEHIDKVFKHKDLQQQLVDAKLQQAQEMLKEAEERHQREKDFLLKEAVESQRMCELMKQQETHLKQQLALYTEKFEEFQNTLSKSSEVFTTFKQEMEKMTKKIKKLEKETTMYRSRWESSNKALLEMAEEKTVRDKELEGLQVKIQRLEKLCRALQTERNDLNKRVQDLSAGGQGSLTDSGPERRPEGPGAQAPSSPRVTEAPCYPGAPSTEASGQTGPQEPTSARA

B1: TMEL1007 (antibody, V domains shown)
VH: HVHLVQSGAEVKKPGSSVKVSCTASGGSFSSNPISWVRQAPGHGLQWMGGFVPLFGTANYAPSFHGRLTITADESTSTTYMELNSLRSEDSAVYYCARDFNWNFDFWGQGTLVTVSS
VL: QSALTQPASVSGSPGQSITISCTGTSSDIGSYNLVSWYRQYPGKAPKLMIYEVNKRPSGVSNRFSGSKSGNTASLTISGLQAEDEADYYCCSYAGTTTFVIFGRGTKLTVLG
notes: It was detected with an anti-human IgG Fc gamma secondary antibody
As to B1, the binding result in test [1] was “no binding (tested: 1 µg/ml)”; in test [2], “binds”.

B2: TMEL1011 (antibody, V domains shown)
VH: PVQLVQSGAEVKKPGSSVKVSCKASGGTFSSYSFNWVRQAPGQGLEWMARIIPILGLANYAQKFQGRVTLTADESTSTAYMELSSLRSEDTAIFYCAGMVLGQLGFDPWGQGTLVTVSS
VL: QFMLTQPHSVSESPGRTVTISCTRSSGSIARNYVHWYQHRPGSSPTTVIYEDDQRPSGVPDRFSGSIDSSSNSASLTISGLKPEDEADYFCQSYDSNIWVFGGGTKLTVLG
notes: as for B1
As for B2, the figures for the binding result in test [1] and in test [3] were “no binding (tested: 1 µg/ml)” and “binds”, respectively.

B3: TMEL1012 (antibody, V domains shown)
VH: PLQLQESGPGLVKPSETLSLTCTVSGDSITTTYYWGWIRQPPGKGLEWIASIYFTGSTFHNPSLKSRVTMSVDTSKNQFSLNLSSVTAADTAVYYCARRVGNWNYVWFDPWGQGTLVSVSS
VL: AYVLTQPPSVSVAPGQTARMTCGGNNIGSKSVHWYRQRPGQAPVLVVYDDTDRPSGIPERFSGSNSGNTATLTISRVEAGDEADYYCQVWDTNSDHVVFGGGTKLTVLG
As to B3, in test [1], the binding result is given as “no binding (tested: 1 µg/ml)”.

B4: TMEL1013 (antibody, V domains shown)
VH: PVQLVQSGAEVKKPGSSVKVSCKASGGTFSSYTINWVRQAPGQGLEWMGRIIPILGVANYAQKFQGRVTITADKSTSTAYMDLSSLRSEDTAVYYCAREWERAFDYWGQGTLVTVSS
VL: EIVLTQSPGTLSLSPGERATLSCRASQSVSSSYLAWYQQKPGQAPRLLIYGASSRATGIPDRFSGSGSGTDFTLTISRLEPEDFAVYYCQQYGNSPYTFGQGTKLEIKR
In the case of B4, the binding result in test [4] and in test [1] was “no binding (tested: 1 µg/ml)” each time.

B5: TMEL1002 (antibody, V domains shown)
VH: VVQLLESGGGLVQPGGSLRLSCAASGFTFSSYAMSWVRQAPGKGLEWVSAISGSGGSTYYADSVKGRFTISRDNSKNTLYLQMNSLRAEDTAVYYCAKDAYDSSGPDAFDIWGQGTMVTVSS
VL: ASALTQPASVSGSPGQSITISCTGTSSDVGDYNYVSWYQQHPGKAPKLMIYDVSNRPSGVSNRFSGSKSGNTASLTISGLQAEDEADYYCSSYTSSSTLVFGGGTKLTVLG
B5: in test [1], the binding result is listed as “no binding (tested: 1 µg/ml)”.

B6: TMEL1008 (antibody, V domains shown)
VH: QVQLVQSGAEVKKPGSSVKVSCKASGGTFNRDGIIWVRQAPGQGLEWMGRIIPILGIANYAQKFQGRVTIIADKSTSTAYMELSSLRSEDTAVYYCARESEVGRGMDVWGQGTTVTVSS
VL: ASALTQPASVSGSPGQSITISCTGTSSDVGDYNYVSWYQQHPGKAPKLMIYDVSNRPSGVSHRFSGSKSGNTASLTISGLQAEDEADYYCSSYTISSTLGVFGPGTKVTVLG
notes: as for B1
In the case of B6, the binding result in test [1] was “no binding (tested: 1 µg/ml)”; in test [5] it was “binds”.

B7: TMEL1009 (antibody, V domains shown)
VH: PVQLVQSGAEVKKPGSSVKVSCRASGGTFSNYGLNWVRQAPGQGLEWMGGIIPIFGSVNYAQKFQDRVTITADESTSTTYMDLNSLRSEDTAVYYCATERGHNMERAFDFWGQGTLVTVSS
VL: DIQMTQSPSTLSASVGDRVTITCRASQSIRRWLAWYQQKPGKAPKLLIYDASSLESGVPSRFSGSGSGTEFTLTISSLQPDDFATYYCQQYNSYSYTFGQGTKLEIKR
Take B7: the binding result in test [1] is reported as “no binding (tested: 1 µg/ml)”.

B8: TMEL1004 (antibody, V domains shown)
VH: QITLKESGPTLVKPTQTLTLTCTFSGFSLNTPGVGVGWIRQPPGKALEWLALIYWDDDKRYRPSLESRLTITKDTSKNHVVLTMTNMDPVDTATYFCAHKNLQYSEWFDPWGQGTLVIVSS
VL: EMVLTQSPATLSLSPGERATLSCRASQSVSRNSLAWYQQRPGQTPRLLIYGASSRATGIPDRFSGSGSGTDFTLIISRLEPEDFAVYFCLQYDESPYTFGQGAKLEIKR
For the molecule B8, in test [1], the binding result is “no binding (tested: 1 µg/ml)”.

B9: TMEL1014 (antibody, V domains shown)
VH: SVQLVESGGGVVQPGRSLRLSCAASGFTFSSYTMHWVRQAPGKGLEWVALISYDGSNKYYADSVKGRFTISRDNPKNTLYLQMNSLRVEDTAVYYCARDWTLGYWGQGTLVTVSS
VL: VSSELTQDPAVSVALGQTVRITCQGDSLRNYYANWYQQKPGQAPILVIYDKNNRPSGIPDRFSGSSSGNTASLTITGAQAEDEADYYCNSRDSSGYHLVFGGGTKLTVLG
notes: as for B1
As to B9, the binding result in test [6] was “binds”.

B10: TMEL1010 (antibody, V domains shown)
VH: QVQLVQSGAEVKKPGASVKVSCKASGYTFSSYGISWVRQAPGQGLEWMGWISAYNGNTNYAKKLQGRVTMTTDTSTSTAYLELRSLRSDDTAVYYCARGDGPFDYWGQGTLVTVSS
VL: EIVMTQSPATLSVSPGERATLSCWASQSVSSSLAWYQQKPGQAPRLLMYGASNRATGIPARFSGSGSGTEFTLTISSLQSEDFAVYYCQQYNKWPPDTFGQGTKLEIKR
notes: as for B1
Turning to B10, the binding result in test [1] is on record as “no binding (tested: 1 µg/ml)”; in test [7], “binds”.
